Here are results for 1 substance from article PMC6004577.

For the experiment, the target named is Acanthamoeba castellanii actin (amoeba actin), filaments (Acanthamoeba castellanii).

mDelFCΔ20, mDelFC lacking the last 20 residues, sequence (Q0QWG9 805-1183, stated change not applied): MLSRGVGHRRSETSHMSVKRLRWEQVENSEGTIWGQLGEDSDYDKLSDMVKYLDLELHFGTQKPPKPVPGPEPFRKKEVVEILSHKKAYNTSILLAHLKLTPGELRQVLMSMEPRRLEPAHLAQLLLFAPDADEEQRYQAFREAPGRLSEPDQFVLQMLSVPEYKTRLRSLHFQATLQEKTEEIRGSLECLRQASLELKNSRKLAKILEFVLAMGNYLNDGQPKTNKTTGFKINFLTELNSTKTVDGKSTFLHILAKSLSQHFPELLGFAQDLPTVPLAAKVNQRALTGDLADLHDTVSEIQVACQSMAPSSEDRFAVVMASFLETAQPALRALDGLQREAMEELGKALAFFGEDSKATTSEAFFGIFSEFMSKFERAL

Substance “mDelFCΔ20, mDelFC lacking the last 20 residues (from UniProt Q0QWG9-2 626-1004) (domain or fragment)” showed an inhibition of barbed-end elongation in seeded elongation assays of 7 nM.
